# Assay results taken from patent US20140294898A1 (published 2014).
# Positions of bridges follow the written chain, without caps; N, C: chain ends. Non-standard residues stand in square brackets, D forms with d. Oic = O=C(O)[C@@H]1C[C@@H]2CCCC[C@@H]2N1; Hyp = O=C(O)[C@@H]1C[C@@H](O)CN1; 3Pal = N[C@@H](Cc1cccnc1)C(=O)O; 4Pal = N[C@@H](Cc1ccncc1)C(=O)O; NMeNle = CCCC[C@H](NC)C(=O)O; Pro(4-NH2) = 4-aminoproline; Pro(4-Ph) = 4-phenylproline; Pip = O=C(O)[C@@H]1CCCCN1; NMeA = CN[C@@H](C)C(=O)O; dNMeA = CN[C@H](C)C(=O)O; Sar = CNCC(=O)O
# B1: Compound No. 8 (peptide)
# peptide: {CH2CO}-F[NMeA]APHL[Sar]WSW[NMeNle][NMeNle]RCG-NH2
# modifications: thioether N-14
# SMILES: CCCC[C@H]1C(=O)N(C)[C@@H](CCCC)C(=O)N[C@@H](CCCNC(=N)N)C(=O)N[C@H](C(=O)NCC(N)=O)CSCC(=O)N[C@@H](Cc2ccccc2)C(=O)N(C)[C@@H](C)C(=O)N[C@@H](C)C(=O)N2CCC[C@H]2C(=O)N[C@@H](Cc2c[nH]cn2)C(=O)N[C@@H](CC(C)C)C(=O)N(C)CC(=O)N[C@@H](Cc2c[nH]c3ccccc23)C(=O)N[C@@H](CO)C(=O)N[C@@H](Cc2c[nH]c3ccccc23)C(=O)N1C
# notes: macrocyclic peptide, Formula I series; also called Compound 8
# B2: Compound No. 10 (peptide)
# peptide: {CH2CO}-F[NMeA]NPAL[Sar]WSW[NMeNle][NMeNle]RCG-NH2
# modifications: thioether N-14
# SMILES: CCCC[C@H]1C(=O)N(C)[C@@H](CCCC)C(=O)N[C@@H](CCCNC(=N)N)C(=O)N[C@H](C(=O)NCC(N)=O)CSCC(=O)N[C@@H](Cc2ccccc2)C(=O)N(C)[C@@H](C)C(=O)N[C@@H](CC(N)=O)C(=O)N2CCC[C@H]2C(=O)N[C@@H](C)C(=O)N[C@@H](CC(C)C)C(=O)N(C)CC(=O)N[C@@H](Cc2c[nH]c3ccccc23)C(=O)N[C@@H](CO)C(=O)N[C@@H](Cc2c[nH]c3ccccc23)C(=O)N1C
# notes: macrocyclic peptide, Formula I series; also called Compound 10
# B3: Compound No. 22 (peptide)
# peptide: {CH2CO}-F[NMeA]NPHL[Sar]WSW[NMeNle][NMeNle]ACG-NH2
# modifications: thioether N-14
# SMILES: CCCC[C@H]1C(=O)N(C)[C@@H](CCCC)C(=O)N[C@@H](C)C(=O)N[C@H](C(=O)NCC(N)=O)CSCC(=O)N[C@@H](Cc2ccccc2)C(=O)N(C)[C@@H](C)C(=O)N[C@@H](CC(N)=O)C(=O)N2CCC[C@H]2C(=O)N[C@@H](Cc2c[nH]cn2)C(=O)N[C@@H](CC(C)C)C(=O)N(C)CC(=O)N[C@@H](Cc2c[nH]c3ccccc23)C(=O)N[C@@H](CO)C(=O)N[C@@H](Cc2c[nH]c3ccccc23)C(=O)N1C
# notes: macrocyclic peptide, Formula I series; also called Compound 22
# B4: Compound No. 13 (peptide)
# peptide: {CH2CO}-F[NMeA]NPHL[NMeA]WSW[NMeNle][NMeNle]RCG-NH2
# modifications: thioether N-14
# SMILES: CCCC[C@H]1C(=O)N(C)[C@@H](CCCC)C(=O)N[C@@H](CCCNC(=N)N)C(=O)N[C@H](C(=O)NCC(N)=O)CSCC(=O)N[C@@H](Cc2ccccc2)C(=O)N(C)[C@@H](C)C(=O)N[C@@H](CC(N)=O)C(=O)N2CCC[C@H]2C(=O)N[C@@H](Cc2c[nH]cn2)C(=O)N[C@@H](CC(C)C)C(=O)N(C)[C@@H](C)C(=O)N[C@@H](Cc2c[nH]c3ccccc23)C(=O)N[C@@H](CO)C(=O)N[C@@H](Cc2c[nH]c3ccccc23)C(=O)N1C
# notes: macrocyclic peptide, Formula I series; also called Compound 13
# B5: Compound No. 14 (peptide)
# peptide: {CH2CO}-F[NMeA]NPHL[dNMeA]WSW[NMeNle][NMeNle]RCG-NH2
# modifications: thioether N-14
# SMILES: CCCC[C@H]1C(=O)N(C)[C@@H](CCCC)C(=O)N[C@@H](CCCNC(=N)N)C(=O)N[C@H](C(=O)NCC(N)=O)CSCC(=O)N[C@@H](Cc2ccccc2)C(=O)N(C)[C@@H](C)C(=O)N[C@@H](CC(N)=O)C(=O)N2CCC[C@H]2C(=O)N[C@@H](Cc2c[nH]cn2)C(=O)N[C@@H](CC(C)C)C(=O)N(C)[C@H](C)C(=O)N[C@@H](Cc2c[nH]c3ccccc23)C(=O)N[C@@H](CO)C(=O)N[C@@H](Cc2c[nH]c3ccccc23)C(=O)N1C
# notes: macrocyclic peptide, Formula I series; also called Compound 14
# B6: Compound No. 16 (peptide)
# peptide: {CH2CO}-F[NMeA]NPHL[Sar]WAW[NMeNle][NMeNle]RCG-NH2
# modifications: thioether N-14
# SMILES: CCCC[C@H]1C(=O)N(C)[C@@H](CCCC)C(=O)N[C@@H](CCCNC(=N)N)C(=O)N[C@H](C(=O)NCC(N)=O)CSCC(=O)N[C@@H](Cc2ccccc2)C(=O)N(C)[C@@H](C)C(=O)N[C@@H](CC(N)=O)C(=O)N2CCC[C@H]2C(=O)N[C@@H](Cc2c[nH]cn2)C(=O)N[C@@H](CC(C)C)C(=O)N(C)CC(=O)N[C@@H](Cc2c[nH]c3ccccc23)C(=O)N[C@@H](C)C(=O)N[C@@H](Cc2c[nH]c3ccccc23)C(=O)N1C
# notes: macrocyclic peptide, Formula I series; also called Compound 16
# B7: Compound No. 15 (peptide)
# peptide: {CH2CO}-F[NMeA]NPHL[Sar]ASW[NMeNle][NMeNle]RCG-NH2
# modifications: thioether N-14
# SMILES: CCCC[C@H]1C(=O)N(C)[C@@H](CCCC)C(=O)N[C@@H](CCCNC(=N)N)C(=O)N[C@H](C(=O)NCC(N)=O)CSCC(=O)N[C@@H](Cc2ccccc2)C(=O)N(C)[C@@H](C)C(=O)N[C@@H](CC(N)=O)C(=O)N2CCC[C@H]2C(=O)N[C@@H](Cc2c[nH]cn2)C(=O)N[C@@H](CC(C)C)C(=O)N(C)CC(=O)N[C@@H](C)C(=O)N[C@@H](CO)C(=O)N[C@@H](Cc2c[nH]c3ccccc23)C(=O)N1C
# notes: macrocyclic peptide, Formula I series; also called Compound 15
# B8: Compound No. 25 (peptide)
# peptide: {CH2CO}-W[NMeA]NPHL[Sar]WSW[NMeNle][NMeNle]RCG-NH2
# modifications: thioether N-14
# SMILES: CCCC[C@H]1C(=O)N(C)[C@@H](CCCC)C(=O)N[C@@H](CCCNC(=N)N)C(=O)N[C@H](C(=O)NCC(N)=O)CSCC(=O)N[C@@H](Cc2c[nH]c3ccccc23)C(=O)N(C)[C@@H](C)C(=O)N[C@@H](CC(N)=O)C(=O)N2CCC[C@H]2C(=O)N[C@@H](Cc2c[nH]cn2)C(=O)N[C@@H](CC(C)C)C(=O)N(C)CC(=O)N[C@@H](Cc2c[nH]c3ccccc23)C(=O)N[C@@H](CO)C(=O)N[C@@H](Cc2c[nH]c3ccccc23)C(=O)N1C
# notes: macrocyclic peptide, Formula I series; also called Compound 25
# B9: Compound No. 47 (peptide)
# peptide: {CH2CO}-F[NMeA]N[Hyp]HL[Sar]WSW[NMeNle][NMeNle]RCG-NH2
# modifications: thioether N-14
# SMILES: CCCC[C@H]1C(=O)N(C)[C@@H](CCCC)C(=O)N[C@@H](CCCNC(=N)N)C(=O)N[C@H](C(=O)NCC(N)=O)CSCC(=O)N[C@@H](Cc2ccccc2)C(=O)N(C)[C@@H](C)C(=O)N[C@@H](CC(N)=O)C(=O)N2C[C@H](O)C[C@H]2C(=O)N[C@@H](Cc2c[nH]cn2)C(=O)N[C@@H](CC(C)C)C(=O)N(C)CC(=O)N[C@@H](Cc2c[nH]c3ccccc23)C(=O)N[C@@H](CO)C(=O)N[C@@H](Cc2c[nH]c3ccccc23)C(=O)N1C
# B10: Compound No. 39 (peptide)
# peptide: {CH2CO}-[4Pal][NMeA]NPHL[Sar]WSW[NMeNle][NMeNle]RCG-NH2
# modifications: thioether N-14
# SMILES: CCCC[C@H]1C(=O)N(C)[C@@H](CCCC)C(=O)N[C@@H](CCCNC(=N)N)C(=O)N[C@H](C(=O)NCC(N)=O)CSCC(=O)N[C@@H](Cc2ccncc2)C(=O)N(C)[C@@H](C)C(=O)N[C@@H](CC(N)=O)C(=O)N2CCC[C@H]2C(=O)N[C@@H](Cc2c[nH]cn2)C(=O)N[C@@H](CC(C)C)C(=O)N(C)CC(=O)N[C@@H](Cc2c[nH]c3ccccc23)C(=O)N[C@@H](CO)C(=O)N[C@@H](Cc2c[nH]c3ccccc23)C(=O)N1C
# B11: Compound No. 38 (peptide)
# peptide: {CH2CO}-[3Pal][NMeA]NPHL[Sar]WSW[NMeNle][NMeNle]RCG-NH2
# modifications: thioether N-14
# SMILES: CCCC[C@H]1C(=O)N(C)[C@@H](CCCC)C(=O)N[C@@H](CCCNC(=N)N)C(=O)N[C@H](C(=O)NCC(N)=O)CSCC(=O)N[C@@H](Cc2cccnc2)C(=O)N(C)[C@@H](C)C(=O)N[C@@H](CC(N)=O)C(=O)N2CCC[C@H]2C(=O)N[C@@H](Cc2c[nH]cn2)C(=O)N[C@@H](CC(C)C)C(=O)N(C)CC(=O)N[C@@H](Cc2c[nH]c3ccccc23)C(=O)N[C@@H](CO)C(=O)N[C@@H](Cc2c[nH]c3ccccc23)C(=O)N1C
# B12: Compound No. 45 (peptide)
# peptide: {CH2CO}-F[NMeA]N[Oic]HL[Sar]WSW[NMeNle][NMeNle]RCG-NH2
# modifications: thioether N-14
# SMILES: CCCC[C@H]1C(=O)N(C)[C@@H](CCCC)C(=O)N[C@@H](CCCNC(=N)N)C(=O)N[C@H](C(=O)NCC(N)=O)CSCC(=O)N[C@@H](Cc2ccccc2)C(=O)N(C)[C@@H](C)C(=O)N[C@@H](CC(N)=O)C(=O)N2[C@@H](C[C@@H]3CCCC[C@@H]32)C(=O)N[C@@H](Cc2c[nH]cn2)C(=O)N[C@@H](CC(C)C)C(=O)N(C)CC(=O)N[C@@H](Cc2c[nH]c3ccccc23)C(=O)N[C@@H](CO)C(=O)N[C@@H](Cc2c[nH]c3ccccc23)C(=O)N1C
# B13: Compound No. 44 (peptide)
# peptide: {CH2CO}-F[NMeA]N[Pip]HL[Sar]WSW[NMeNle][NMeNle]RCG-NH2
# modifications: thioether N-14
# SMILES: CCCC[C@H]1C(=O)N(C)[C@@H](CCCC)C(=O)N[C@@H](CCCNC(=N)N)C(=O)N[C@H](C(=O)NCC(N)=O)CSCC(=O)N[C@@H](Cc2ccccc2)C(=O)N(C)[C@@H](C)C(=O)N[C@@H](CC(N)=O)C(=O)N2CCCC[C@H]2C(=O)N[C@@H](Cc2c[nH]cn2)C(=O)N[C@@H](CC(C)C)C(=O)N(C)CC(=O)N[C@@H](Cc2c[nH]c3ccccc23)C(=O)N[C@@H](CO)C(=O)N[C@@H](Cc2c[nH]c3ccccc23)C(=O)N1C
# Target: T1, human PD-L1 (human, UniProt Q9NZQ7 19-239, limits assumed)
# T1 construct: also called Hu PD-L1; hPD-L1
# Assay: cell binding assay, inhibition of Hu PD-L1/PD-1 binding
# T1 sequence (Q9NZQ7 19-239 limits assumed): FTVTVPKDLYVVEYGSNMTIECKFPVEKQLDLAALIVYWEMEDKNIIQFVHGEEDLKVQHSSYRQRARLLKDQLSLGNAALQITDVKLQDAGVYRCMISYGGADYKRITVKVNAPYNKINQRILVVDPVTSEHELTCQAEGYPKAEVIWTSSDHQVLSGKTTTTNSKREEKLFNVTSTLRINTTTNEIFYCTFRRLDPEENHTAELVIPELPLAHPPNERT
row,IC50 [nM],Binder
1,223,B1
2,82,B2
3,28,B3
4,35,B4
5,242,B5
6,13,B6
7,1910,B7
8,19,B8

# Target: T2, hPDL1(19-239)-TVMV-His (human, UniProt Q9NZQ7 19-239)
# T2 construct: The text says amino acids 18-239, the construct name says 19-239; Expressed in HEK293T cells; Used at 10 nM final in the HTRF assay; also called PD-L1-His; PD-L1-TVMV-His
# Assay: HTRF competition, PD-1-Ig binding to PD-L1-His
# T2 sequence (Q9NZQ7 other isoform, or with tags, fused parts or gaps limits assumed): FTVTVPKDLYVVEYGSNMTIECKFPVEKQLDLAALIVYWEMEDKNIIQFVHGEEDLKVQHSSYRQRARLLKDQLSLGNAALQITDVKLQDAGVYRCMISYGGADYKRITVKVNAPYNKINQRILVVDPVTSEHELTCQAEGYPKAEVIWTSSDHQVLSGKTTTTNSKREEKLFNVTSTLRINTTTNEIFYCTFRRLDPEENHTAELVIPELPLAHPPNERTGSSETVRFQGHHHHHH
row,IC50 [nM],Binder
1,27,B9
2,33,B10
3,40,{CH2CO}-F[NMeA]N[Pro(4-NH2)]HL[Sar]WSW[NMeNle][NMeNle]RCG-NH2 (thioether N-14) [Compound No. 48]
4,46,B11
5,873,{CH2CO}-F[NMeA]N[Pro(4-Ph)]HL[Sar]WSW[NMeNle][NMeNle]RCG-NH2 (thioether N-14) [Compound No. 46]
6,105,B12
7,34,B13
